Target: TACE
Assay: cell-based or functional assay

| Binder | TACE IC50 |
| --- | --- |
| cyclo(GVCLCRRGVCLCRR) (disulfide (positions not given here); not fully specified (bridges)) [Peptide 3] | 1.15 µg/mL |
| cyclo(GVCICRRGVCICRR) (disulfide (positions not given here); not fully specified (bridges)) [Peptide 4] | 0.546 µg/mL |
| cyclo(GVCICRRRVCICGR) (disulfide (positions not given here); not fully specified (bridges)) [Peptide 1] | 0.858 µg/mL |
| cyclo(GVCICRRRFCLCRR) (disulfide (positions not given here); not fully specified (bridges)) [Peptide 2] | 2.2 µg/mL |

The next lines start with the values.

| TACE IC50 | Binder |
| --- | --- |
| 1.87 µg/mL | cyclo(GVCICRRRFCSCRR) (disulfide (positions not given here); not fully specified (bridges)) [Peptide 7] |
| 0.515 µg/mL | cyclo(GACICRRRFCLCRR) (disulfide (positions not given here); not fully specified (bridges)) [Peptide 9] |
| 2.61 µg/mL | cyclo(GVCSCRRRFCLCRR) (disulfide (positions not given here); not fully specified (bridges)) [Peptide 8] |
| 2.74 µg/mL | cyclo(GVCACRRRFCACRR) (disulfide (positions not given here); not fully specified (bridges)) [Peptide 10] |
| 1.83 µg/mL | cyclo(GVCACARRFCACRR) (disulfide (positions not given here); not fully specified (bridges)) [Peptide 5] |
| 3.19 µg/mL | cyclo(GVCSCRRRFCICRR) (disulfide (positions not given here); not fully specified (bridges)) [Peptide 6] |

— patent US20230038720A1
